Measured values reported in publication PMC10806771.

Biological target: trastuzumab (human)
Test: fluorescence polarisation

IC50, > 3000 nM:
Fc-III V10K (peptide), Fc-III W4K (peptide), Fc-III W11K (peptide)
